Experimental data as given in CN111748580A.

How the values were obtained:
[1] = target: 全长的人CD226 (hCD226) on Jurkat cells (human) (UniProt Q15762); assay: flow cytometry on Jurkat cells transfected with TIGIT and CD226
[2] = target: CD33SP-OKT3scFv-CD28TC (鼠抗人CD3抗体 OKT3单链抗体, shown on CHO cells); assay: flow cytometry, 40 nM Biotin-Protein L on CHO cells transfected with OKT3scFv, Streptavidin PE
[3] = target: T1, PVR (Poliovirus receptor) expressed on CHO-OKT3 cells (Homo sapiens (Human)) (UniProt P15151); assay: flow cytometry, 40 nM TIGIT-Fc on CHO-OKT3 cells transfected with PVR, anti-human Fc-PE
T1 sequence: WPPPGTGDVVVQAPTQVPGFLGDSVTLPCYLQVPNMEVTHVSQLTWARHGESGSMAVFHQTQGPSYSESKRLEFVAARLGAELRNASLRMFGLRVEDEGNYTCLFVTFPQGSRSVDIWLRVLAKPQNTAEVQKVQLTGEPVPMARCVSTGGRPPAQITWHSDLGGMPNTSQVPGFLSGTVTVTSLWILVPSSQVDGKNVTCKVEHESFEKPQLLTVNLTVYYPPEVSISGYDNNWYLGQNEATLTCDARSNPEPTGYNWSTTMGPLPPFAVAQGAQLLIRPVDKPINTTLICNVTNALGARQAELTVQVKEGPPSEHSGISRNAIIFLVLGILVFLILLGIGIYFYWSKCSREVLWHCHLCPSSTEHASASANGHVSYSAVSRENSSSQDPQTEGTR

UniProt Q15762, sequence (Q15762 19-336 limits assumed): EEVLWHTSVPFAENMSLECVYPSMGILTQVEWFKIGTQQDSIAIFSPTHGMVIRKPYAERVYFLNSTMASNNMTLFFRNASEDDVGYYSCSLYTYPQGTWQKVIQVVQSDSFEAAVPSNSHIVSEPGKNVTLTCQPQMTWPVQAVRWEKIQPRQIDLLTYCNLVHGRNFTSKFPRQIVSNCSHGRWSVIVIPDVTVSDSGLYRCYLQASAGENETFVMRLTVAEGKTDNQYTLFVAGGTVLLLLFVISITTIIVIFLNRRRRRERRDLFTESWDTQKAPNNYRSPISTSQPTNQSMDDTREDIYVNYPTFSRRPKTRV
CD33SP-OKT3scFv-CD28TC (鼠抗人CD3抗体 OKT3单链抗体, shown on CHO cells), sequence (scFv, as listed by the source): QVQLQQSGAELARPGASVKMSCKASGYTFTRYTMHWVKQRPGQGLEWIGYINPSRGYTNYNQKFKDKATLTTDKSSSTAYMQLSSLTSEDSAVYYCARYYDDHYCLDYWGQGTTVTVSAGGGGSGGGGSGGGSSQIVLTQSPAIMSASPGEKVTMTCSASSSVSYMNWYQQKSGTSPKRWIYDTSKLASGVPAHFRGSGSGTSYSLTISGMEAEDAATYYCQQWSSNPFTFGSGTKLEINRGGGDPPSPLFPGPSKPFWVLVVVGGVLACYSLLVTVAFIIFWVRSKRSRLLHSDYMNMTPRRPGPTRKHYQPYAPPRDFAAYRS

anti-CD226 PE (R&D Systems, Inc. #FAB666P) (antibody)
细胞阳性率 (percent positive cells) [1]: 12.7%

Biotin-Protein L (金斯瑞生物科技, 货号 M00097)
阳性率 (percent positive cells) [2]: 42.6%

B1: TIGIT-Fc蛋白 (Fc fusion, UniProt Q495A1 22-141, looked up, not shown: a dimerising Fc or GST)
chain: MMTGTIETTGNISAEKGGSIILQCHLSSTTAQVTQVNWEQQDQLLAICNADLGWHISPSFKDRVAPGPGLGLTLQSLTVNDTGEYFCIYHTYPDGTYTGRIFLEVLESSVAEHGARFQIP
阳性率 (percent positive cells) [3]: 93.2%
